Reference: publication PMC6138639, “The ZZ-type zinc finger of ZZZ3 modulates the ATAC complex-mediated histone acetylation and gene activation” (Nature Communications, 2018)

Target: ZZZ3 ZZ domain (aa 800–903), GST cleaved (human) (UniProt Q8IYH5)
Assay: other fluorescence titration; tryptophan fluorescence; 1.0 µM ZZZ3 ZZ (aa 800–903) with increasing histone peptide; 25 °C; 20 mM Tris–HCl pH 7.2, 150 mM NaCl, 1 mM DTT; triplicates

ZZZ3 ZZ domain (aa 800–903), GST cleaved (human), sequence (Q8IYH5 800-903): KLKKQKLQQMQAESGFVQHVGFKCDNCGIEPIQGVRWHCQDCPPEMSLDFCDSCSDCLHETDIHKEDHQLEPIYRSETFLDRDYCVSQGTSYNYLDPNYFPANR

Row | Kd [µM] | Substance
1 | 8.2 | H3K4ac peptide of the tryptophan fluorescence and NMR titration experiments
2 | 29 | unmodified H3 peptide of the tryptophan fluorescence and NMR titration experiments
